Test results published in the supplement of paper PMC10126150.
± gives the standard deviation of the averaged measurements.

test system: ATP; assay: switch fluorescence ratio, 500 uM ATP over buffer (Cy3 cluster intensity, sum of 5 cycles each) (fold (ratio)); higher = stronger signal-on switching upon ATP binding; sequences stand for … in TCGTCGGCAGCGTCAGATGTGTATAAGAGACAGTTTTTTTTTTTTTTTTTTTTTTTTT…TC; settings: aptamer strand: ATP DNA aptamer (quencher-CACCTGGGGGAGTATTGCGGAGGAAGG + anchor), 100 nM annealed; ATP concentration: 500 uM
How it was run: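 Clusters with intensities outside 100-1000 RFU were excluded. The remaining Cy3-labelled switching-strand clusters on a modified Illumina MiSeq flow-cell had been annealed to 100 nM quencher-labelled ATP aptamer and imaged in selection buffer, then after 15 min with 500 uM ATP at 22 °C, for five cycles separated by NaOH stripping and re-annealing. The fluorescence ratio, averaged per switch-domain sequence, is each cluster's summed target-cycle Cy3 intensity over its summed buffer-cycle Cy3 intensity.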
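Further: ATP exposure 15 min at 22 °C before imaging.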

Sequence | switch fluorescence ratio
GGTACGGTTT | 1.04 ± 0.02
GGTACTAATA | 1.023 ± 0.007
GGTACTACCG | 1.03 ± 0.044
GGTACTCATT | 0.994 ± 0.034
GGTACTGGGG | 1.06 ± 0.015
GGTACTTCTA | 1.01 ± 0.018
GGTACTTGTA | 1 ± 0.016
GGTAGAAACT | 1.04 ± 0.014
GGTAGACCGC | 0.987 ± 0.053
GGTAGAGTAA | 1 ± 0.033
GGTAGATAGT | 0.979 ± 0.029
GGTAGCAGTT | 1 ± 0.026
GGTAGCCGGT | 1.01 ± 0.041
GGTAGCGTCT | 1.06 ± 0.09
GGTAGGACTC | 1 ± 0.026
GGTAGGATAG | 0.9728 ± 0.0016
GGTAGGGAAC | 0.975 ± 0.029
GGTAGGGAAT | 0.974 ± 0.029
GGTAGGGCGG | 1.01 ± 0.068
GGTAGGGGGA | 1.02 ± 0.046
GGTATAAATG | 1 ± 0.019
GGTATAAGGT | 1.006 ± 0.01
GGTATACGCA | 1.14 ± 0.028
GGTATAGAGC | 1.02 ± 0.05
GGTATAGCAC | 1.07 ± 0.016

Sequence | switch fluorescence ratio
GGTATAGCGC | 1.01 ± 0.051
GGTATAGGAT | 0.991 ± 0.025
GGTATAGTAG | 0.99304 ± 0.00031
GGTATAGTTA | 1.02 ± 0.037
GGTATATAGG | 1.01 ± 0.027
GGTATCCGGC | 1.03 ± 0.088
GGTATCGGAA | 0.984 ± 0.055
GGTATCTAGT | 1.02 ± 0.032
GGTATCTGTT | 0.986 ± 0.016
GGTATGAGTG | 0.9737 ± 0.006
GGTATGTGTG | 1.03 ± 0.024
GGTATTAGCT | 1.01 ± 0.013
GGTATTAGGT | 1.01 ± 0.011
GGTATTCGGT | 0.971 ± 0.04
GGTATTGAAG | 0.999 ± 0.024
GGTATTGTTT | 0.9881 ± 0.0066
GGTATTTAGG | 1.02 ± 0.029
GGTCAAATAA | 0.99 ± 0.042
GGTCACTGCG | 0.9955 ± 0.0064
GGTCAGCCGG | 1.02 ± 0.012
GGTCAGTGGT | 1 ± 0.022
GGTCAGTTAT | 0.99 ± 0.047
GGTCATAGGT | 0.994 ± 0.022
GGTCATATAG | 1.032 ± 0.0012
GGTCATGGTG | 1.08 ± 0.024

Sequence | switch fluorescence ratio
GGTCATTGGA | 1.09 ± 0.064
GGTCCATTTT | 0.969 ± 0.017
GGTCCCGGTG | 1.1 ± 0.013
GGTCCGGCGG | 0.984 ± 0.057
GGTCCGGGCG | 0.997 ± 0.024
GGTCCGGGTT | 1.006 ± 0.01
GGTCCGGTTC | 1.01 ± 0.025
GGTCCGTAGT | 1.04 ± 0.017
GGTCCTGGGA | 1.02 ± 0.059
GGTCCTGTCG | 1.03 ± 0.042
GGTCGAAATT | 1.15 ± 0.31
GGTCGAAGGG | 0.985 ± 0.051
GGTCGAGAGG | 0.971 ± 0.03
GGTCGCACGG | 1.02 ± 0.026
GGTCGGCTAG | 0.9954 ± 0.0083
GGTCGGGGAA | 1.01 ± 0.042
GGTCGTGGCA | 0.969 ± 0.028
GGTCGTTCGC | 1.01 ± 0.038
GGTCGTTTTT | 1.044 ± 0.0029
GGTCTAATCT | 1.04 ± 0.015
GGTCTACTTT | 0.998 ± 0.021
GGTCTAGCCT | 0.9858 ± 0.0066
GGTCTAGGTG | 1.2586 ± 0.00091
GGTCTCCGGC | 1.01 ± 0.065
GGTCTCTTTG | 0.9663 ± 0.0084

Sequence | switch fluorescence ratio
GGTCTGATTG | 1.01 ± 0.065
GGTCTGCTTA | 0.9828 ± 0.0065
GGTCTGTTTT | 0.992 ± 0.022
GGTCTTAGTG | 0.982 ± 0.017
GGTGAACGTG | 0.97 ± 0.041
GGTGACAGCT | 0.979 ± 0.023
GGTGACTATT | 0.979 ± 0.037
GGTGAGGGGT | 0.997 ± 0.035
GGTGATAGCT | 0.987 ± 0.076
GGTGATAGGG | 0.98 ± 0.036
GGTGATGAGA | 0.991 ± 0.06
GGTGATTCTG | 0.965 ± 0.038
GGTGATTGCT | 0.967 ± 0.036
GGTGCAGCGG | 0.982 ± 0.018
GGTGCCAAGG | 0.959 ± 0.02
GGTGCGACTC | 1.04 ± 0.05
GGTGCGGGAT | 0.992 ± 0.043
GGTGCGGTTG | 0.9975 ± 0.00035
GGTGGACGGG | 0.974 ± 0.015
GGTGGAGAGG | 0.929 ± 0.018
GGTGGAGTTT | 0.987 ± 0.015
GGTGGATCTT | 1.03 ± 0.015
GGTGGATGGG | 0.987 ± 0.014
GGTGGCATTT | 1.08 ± 0.011
GGTGGCGTAC | 1.018 ± 0.01

Sequence | switch fluorescence ratio
GGTGGGAAGT | 0.987 ± 0.021
GGTGGGAGTT | 1.04 ± 0.032
GGTGGGATTA | 1.014 ± 0.009
GGTGGGGCGT | 1 ± 0.017
GGTGGGGGAG | 1.01 ± 0.043
GGTGGGGGCA | 0.979 ± 0.029
GGTGGGGGCC | 1.03 ± 0.011
GGTGGGGTGA | 0.9856 ± 0.0078
GGTGGGTCGG | 0.98 ± 0.036
GGTGGGTGCT | 0.995 ± 0.052
GGTGGGTTGC | 0.9858 ± 0.0086
GGTGGTAAGA | 0.978 ± 0.074
GGTGGTCGAG | 0.989 ± 0.02
GGTGGTCGGT | 0.9787 ± 0.0066
GGTGGTGGGA | 0.977 ± 0.04
GGTGGTGGGG | 0.968 ± 0.03
GGTGGTTGCA | 1 ± 0.024
GGTGTACGGG | 0.987 ± 0.036
GGTGTAGTAT | 0.9759 ± 0.008
GGTGTATAA | 0.995 ± 0.032
GGTGTATTTA | 1.02 ± 0.017
GGTGTCAGCT | 0.967 ± 0.038
GGTGTCCGGG | 0.9986 ± 0.0019
GGTGTCGGGA | 0.9705 ± 0.009
GGTGTCGGTC | 0.956 ± 0.049

Sequence | switch fluorescence ratio
GGTGTGCATA | 0.994 ± 0.028
GGTGTGCATG | 0.99 ± 0.053
GGTGTGCTTT | 1.02 ± 0.025
GGTGTGGGCA | 0.998 ± 0.041
GGTGTGGTGG | 1.01 ± 0.027
GGTGTGTTCT | 0.985 ± 0.011
GGTGTTACTG | 1.03 ± 0.048
GGTGTTCGCA | 1.02 ± 0.014
GGTGTTCGGA | 1 ± 0.031
GGTGTTGAAG | 0.986 ± 0.044
GGTGTTGTTT | 0.963 ± 0.019
GGTGTTTATG | 0.9841 ± 0.0034
GGTGTTTTAG | 0.989 ± 0.021
GGTGTTTTTG | 1.05 ± 0.054
GGTTAAAGAG | 0.9868 ± 0.008
GGTTAACTTG | 0.975 ± 0.034
GGTTAAGAAC | 0.993 ± 0.019
GGTTAATGTT | 0.998 ± 0.026
GGTTAATTAA | 1.03 ± 0.019
GGTTAATTAC | 1.02 ± 0.034
GGTTAATTTT | 1.02 ± 0.028
GGTTACCTTT | 0.996 ± 0.042
GGTTACGGGT | 0.994 ± 0.057
GGTTAGCGTC | 1.03 ± 0.059
GGTTAGGAAA | 0.998 ± 0.021

Sequence | switch fluorescence ratio
GGTTAGGCAT | 1 ± 0.0058
GGTTAGTGGG | 0.998 ± 0.017
GGTTATAGTA | 0.989 ± 0.042
GGTTATGTTG | 0.977 ± 0.047
GGTTATTAAA | 0.998 ± 0.01
GGTTCAAAGT | 0.9703 ± 0.0047
GGTTCAGCCT | 1.01 ± 0.018
GGTTCATACG | 1.008 ± 0.0041
GGTTCATGTG | 1.01 ± 0.015
GGTTCCATGC | 1.1 ± 0.014
GGTTCGAAGG | 0.95 ± 0.032
GGTTCGCAGC | 1.15 ± 0.025
GGTTCGGGGA | 0.98 ± 0.019
GGTTCGTGGG | 1.01 ± 0.02
GGTTCTAGTG | 0.968 ± 0.025
GGTTCTCAGT | 0.988 ± 0.0097
GGTTCTCTAG | 0.976 ± 0.01
GGTTCTTCAA | 1.01 ± 0.023
GGTTGAACAT | 0.9661 ± 0.0027
GGTTGACTCT | 1.01 ± 0.029
GGTTGCAGCC | 1.02 ± 0.026
GGTTGCTGTC | 0.964 ± 0.045
GGTTGGAAAA | 1.0226 ± 0.00079
GGTTGGAGGC | 1.03 ± 0.067
GGTTGGCATG | 0.952 ± 0.03

Sequence | switch fluorescence ratio
GGTTGGCGTC | 0.955 ± 0.041
GGTTGGCTCG | 1 ± 0.025
GGTTGGGCTT | 0.979 ± 0.012
GGTTGGGTGG | 0.986 ± 0.03
GGTTGGTACG | 1.01 ± 0.019
GGTTGGTGCG | 1.1 ± 0.074
GGTTGTAAAA | 0.9867 ± 0.0092
GGTTGTAAGG | 1.01 ± 0.033
GGTTGTATTT | 0.962 ± 0.06
GGTTGTGGCT | 0.9883 ± 0.0059
GGTTGTTGGA | 0.999 ± 0.0057
GGTTTAAATA | 1.003 ± 0.0092
GGTTTAAGGG | 0.972 ± 0.023
GGTTTACGCT | 0.996 ± 0.027
GGTTTAGACT | 0.99 ± 0.036
GGTTTAGGAC | 0.971 ± 0.016
GGTTTAGGTG | 1.14 ± 0.059
GGTTTATTTT | 0.9946 ± 0.0013
GGTTTCAAAA | 0.99668 ± 0.00038
GGTTTCAGTG | 1.01 ± 0.025
GGTTTCGAAT | 0.98 ± 0.049
GGTTTCGGTG | 1.008 ± 0.0098
GGTTTCGTAG | 1.01 ± 0.027
GGTTTCTCGG | 1.019 ± 0.0092
GGTTTCTTGC | 1.02 ± 0.011
